Results reported in US20110082078.

Test system: ZFP-TF 14172-p65 (rat GDNF activator) (synthetic)
Test: cell_activity
Conditions: GDNF mRNA increase vs AAV-GFP in rat eye; also activates in rat striatal neurons (FIG. 5)

“GGGGGCGCGGAACCGGGA (double strand) [rat GDNF target site (SEQ ID NO:55)]” was tested, and the activity was 5 fold.
